In US20040152179A1 (US Dept. of Health and Human Services, published 2004):

B1: diphtheria toxin receptor on Cos-7 cells (monkey kidney) (receptor)
chain: DLQEADLDLLRVTLSSKPQALATPSKEEHGKRKKKGKGLGKKRDPCLRKYKDFCIHGECKYVKELRAPSCICHPGYHGERCHGLSL
notes: whole, on cells; also called DT receptor

Legend:
[1] = target: diphtheria toxin receptor on human cell lines (U251, HeLa, Jurkat) (human) (UniProt Q99075); experiment: cell-based or functional assay
[2] = target: diphtheria toxin receptor on Cos-7 cells (monkey kidney) (monkey) (UniProt Q09118); experiment: cold competitor against I^125-labelled DT on Cos-7 cells; reference native DT
[3] = target: T1, DTR (diphtheria toxin receptor binding domain, codons 384-535 of DT), control protein (UniProt P00588 416-567); experiment: competition with I^125-labelled DT on Cos-7 cells
T1 construct: range 384-535

Row | Molecule | Apoptosis Prevention (%), HeLa cells, 0.2 uM STS, 2.17 uM Bcl-xL-DTR, 10 hrs [1] | fold lower affinity than native DT [2] | binding result [3]
1 | Bcl-xL-DTR | 32.4% | 3 fold | 
2 | B1 |  |  | no binding
